Source: paper PMC9352719, “Interaction between transcribing RNA polymerase and topoisomerase I prevents R-loop formation in E. coli”

Legend:
[1] = target: T1, EcTopoI (topoisomerase I) (Escherichia coli DY330, UniProt P06612 1-865); assay: competition; vs labeled Consensus R; about as efficient as Consensus R; EMSA: 10 mM Tris-HCl pH 7.5, 50 mM NaCl, 6 mM MgCl2, 37 C 10 min; MST: same plus 0.05% Tween-20, 22 C; details: protein: recombinant; single strand
[2] = target: T1, EcTopoI (topoisomerase I); assay: EMSA; 6 mM Mg2+; EMSA: 10 mM Tris-HCl pH 7.5, 50 mM NaCl, 6 mM MgCl2, 37 C 10 min; MST: same plus 0.05% Tween-20, 22 C; details: protein: recombinant; label: 5'-Cy5; single strand
[3] = target: T1, EcTopoI (topoisomerase I); assay: MST; 6 mM Mg2+; range for both random oligos; EMSA: 10 mM Tris-HCl pH 7.5, 50 mM NaCl, 6 mM MgCl2, 37 C 10 min; MST: same plus 0.05% Tween-20, 22 C; details: protein: recombinant; label: 5'-Cy5; single strand

T1 sequence (P06612 whole entry): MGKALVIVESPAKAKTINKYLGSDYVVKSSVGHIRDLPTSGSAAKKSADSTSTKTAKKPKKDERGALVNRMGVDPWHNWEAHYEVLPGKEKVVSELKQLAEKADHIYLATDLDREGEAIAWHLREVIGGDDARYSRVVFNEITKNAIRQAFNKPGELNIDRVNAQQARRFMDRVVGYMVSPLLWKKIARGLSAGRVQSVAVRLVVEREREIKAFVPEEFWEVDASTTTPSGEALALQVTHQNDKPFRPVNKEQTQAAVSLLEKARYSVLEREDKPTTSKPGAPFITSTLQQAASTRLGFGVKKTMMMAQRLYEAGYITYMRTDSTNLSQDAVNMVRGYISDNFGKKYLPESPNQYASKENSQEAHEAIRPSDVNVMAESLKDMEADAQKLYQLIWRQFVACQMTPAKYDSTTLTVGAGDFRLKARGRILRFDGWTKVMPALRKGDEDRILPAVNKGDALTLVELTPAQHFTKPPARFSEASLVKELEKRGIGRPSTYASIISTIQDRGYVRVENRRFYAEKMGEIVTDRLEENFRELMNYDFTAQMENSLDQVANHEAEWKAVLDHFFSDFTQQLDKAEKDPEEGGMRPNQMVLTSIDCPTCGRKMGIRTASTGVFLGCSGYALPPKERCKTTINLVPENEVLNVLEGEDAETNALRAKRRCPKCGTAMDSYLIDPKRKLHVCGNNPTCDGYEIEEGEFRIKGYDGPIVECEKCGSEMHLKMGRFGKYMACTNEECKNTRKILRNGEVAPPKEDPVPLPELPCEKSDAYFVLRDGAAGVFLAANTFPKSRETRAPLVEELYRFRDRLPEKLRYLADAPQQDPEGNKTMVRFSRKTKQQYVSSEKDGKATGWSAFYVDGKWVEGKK

CGCAAAAAAAAAAAAAAAAAAAACGC (ssDNA) [Poly-A, unlabeled]
binding result [1]: binds

CGCAAAAATAATGAAGAAAAAAACGC (ssDNA) [Consensus R]
Kd [2]: 207 ± 76 nM

GCGCACGTAATCCGCAGTGCGGTGCG (ssDNA) [Random F]
Kd [3]: ~324 nM

CGCTCCGCACTGCGGATTACGTGCGC (ssDNA) [Random R]
Kd [3]: ~324 nM

GCGTTTTTTTCTTCATTATTTTTGCG (ssDNA) [Consensus F]
Kd [2]: 190 ± 87 nM
